Publication PMC3474606

Tests used:
[1] = target: recombinant gp120 from HIV-1(ADA) strain (HIV-1 (ADA)); assay: ELISA
[2] = target: recombinant gp120 from HIV-1(IIIB) strain, glycosylated (HIV-1 (IIIB)) (UniProt P04578); assay: SPR
[3] = target: recombinant gp120 from HIV-1(ADA) strain (HIV-1 (ADA)); assay: SPR
GRFT D30A (red algae) = GRFT D30A (red algae) (UniProt P84801); assay: AUC
[4] = target: recombinant gp41 protein from HIV-1(HxB2) (HIV-1 (HxB2)) (UniProt P04578); assay: SPR
GRFT D112A (red algae) = GRFT D112A (red algae) (UniProt P84801); assay: AUC
[5] = target: trimeric gp140 derived from HIV-1/JR-FL (HIV-1 (JR-FL)); assay: SPR
[6] = target: monomeric gp120 derived from HIV-1/JR-FL (HIV-1 (JR-FL)); assay: SPR
[7] = target: wild-type griffithsin (GRFT) (red algae) (UniProt P84801); assay: AUC

Substance	fold reduction in binding against wild-type GRFT [1]	Kd [2]	Kd [3]	stoichiometry N (GRFT D30A (red algae))	Kd [4]	stoichiometry N (GRFT D112A (red algae))	Kd [5]	Kd [6]	stoichiometry N [7]
GRFT D30A (from UniProt P84801 1-121) (natural protein)	10 fold	0.156 nM	0.123 nM	2	–	–	–	–	–
GRFT D70A (from UniProt P84801 1-121) (natural protein)	10 fold	0.245 nM	0.194 nM	–	0.165 nM	–	–	–	–
GRFT D112A (from UniProt P84801 1-121) (natural protein)	10 fold	0.142 nM	0.122 nM	–	0.131 nM	2	–	–	–
wild-type griffithsin (GRFT) (from UniProt P84801 1-121) (natural protein)	–	0.0727 nM	0.0732 nM	–	0.0449 nM	–	0.152 nM	0.111 nM	2
